One data set deals with SHP2-C SH2. The experiment in a line: SH2 binding enrichment of the phosphorylated peptide, bacterial display (enrichment ratio); higher = better substrate or ligand; peptides without Tyr show the background.
The target of the next data set is c-Src SH2. The description is as above.
For the next data set, the target named is Grb2 SH2 (UniProt P62993). Described as above.
The next data set has as its system AncSZ. The experiment in a line: phosphorylation enrichment, bacterial display (enrichment ratio); higher = better substrate or ligand; peptides without Tyr show the background.
The target in a further data set is EPHB2 (UniProt P29323). Described as above.
Sequence of EPHB2 (P29323 whole entry, looked up): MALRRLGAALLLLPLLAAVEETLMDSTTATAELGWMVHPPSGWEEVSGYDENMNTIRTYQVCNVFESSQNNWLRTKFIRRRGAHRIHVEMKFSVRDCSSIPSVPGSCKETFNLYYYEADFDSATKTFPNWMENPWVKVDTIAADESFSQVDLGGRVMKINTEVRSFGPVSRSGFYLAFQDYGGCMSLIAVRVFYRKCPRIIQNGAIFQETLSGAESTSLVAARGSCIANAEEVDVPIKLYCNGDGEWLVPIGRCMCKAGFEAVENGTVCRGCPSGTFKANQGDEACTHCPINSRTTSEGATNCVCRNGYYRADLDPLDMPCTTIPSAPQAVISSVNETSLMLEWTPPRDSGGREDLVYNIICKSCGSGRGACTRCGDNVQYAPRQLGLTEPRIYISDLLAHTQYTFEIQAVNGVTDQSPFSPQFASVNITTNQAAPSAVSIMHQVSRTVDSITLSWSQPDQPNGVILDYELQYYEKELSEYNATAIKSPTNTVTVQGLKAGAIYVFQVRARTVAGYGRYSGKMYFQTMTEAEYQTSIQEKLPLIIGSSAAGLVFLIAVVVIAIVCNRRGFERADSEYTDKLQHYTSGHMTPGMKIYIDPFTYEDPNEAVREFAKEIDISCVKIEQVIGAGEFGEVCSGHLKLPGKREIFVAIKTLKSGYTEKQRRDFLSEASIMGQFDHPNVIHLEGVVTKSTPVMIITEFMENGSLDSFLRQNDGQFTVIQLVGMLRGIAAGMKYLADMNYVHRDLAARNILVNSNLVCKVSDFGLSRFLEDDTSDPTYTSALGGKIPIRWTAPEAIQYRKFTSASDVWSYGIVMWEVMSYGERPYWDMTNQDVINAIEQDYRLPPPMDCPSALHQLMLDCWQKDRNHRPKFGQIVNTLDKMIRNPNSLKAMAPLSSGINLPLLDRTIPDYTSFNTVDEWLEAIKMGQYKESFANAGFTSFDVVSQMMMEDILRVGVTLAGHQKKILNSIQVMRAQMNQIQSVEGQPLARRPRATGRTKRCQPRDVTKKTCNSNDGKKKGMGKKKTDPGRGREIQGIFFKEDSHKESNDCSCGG
A further data set concerns the target EPHB1 (UniProt P54762). Described as above.
For a further data set, the target named is FGFR3 (UniProt P22607). The data set is described as above.
Another data set concerns the target Jak2 (UniProt O60674). Described as above.
The next data set has as its target MERTK (UniProt Q12866). The data set is described as above.
The next data set concerns c-Abl (mouse). Described as above.
The target of another data set is Fes (UniProt P07332). Described as above.
Sequence of Fes (P07332 whole entry, looked up): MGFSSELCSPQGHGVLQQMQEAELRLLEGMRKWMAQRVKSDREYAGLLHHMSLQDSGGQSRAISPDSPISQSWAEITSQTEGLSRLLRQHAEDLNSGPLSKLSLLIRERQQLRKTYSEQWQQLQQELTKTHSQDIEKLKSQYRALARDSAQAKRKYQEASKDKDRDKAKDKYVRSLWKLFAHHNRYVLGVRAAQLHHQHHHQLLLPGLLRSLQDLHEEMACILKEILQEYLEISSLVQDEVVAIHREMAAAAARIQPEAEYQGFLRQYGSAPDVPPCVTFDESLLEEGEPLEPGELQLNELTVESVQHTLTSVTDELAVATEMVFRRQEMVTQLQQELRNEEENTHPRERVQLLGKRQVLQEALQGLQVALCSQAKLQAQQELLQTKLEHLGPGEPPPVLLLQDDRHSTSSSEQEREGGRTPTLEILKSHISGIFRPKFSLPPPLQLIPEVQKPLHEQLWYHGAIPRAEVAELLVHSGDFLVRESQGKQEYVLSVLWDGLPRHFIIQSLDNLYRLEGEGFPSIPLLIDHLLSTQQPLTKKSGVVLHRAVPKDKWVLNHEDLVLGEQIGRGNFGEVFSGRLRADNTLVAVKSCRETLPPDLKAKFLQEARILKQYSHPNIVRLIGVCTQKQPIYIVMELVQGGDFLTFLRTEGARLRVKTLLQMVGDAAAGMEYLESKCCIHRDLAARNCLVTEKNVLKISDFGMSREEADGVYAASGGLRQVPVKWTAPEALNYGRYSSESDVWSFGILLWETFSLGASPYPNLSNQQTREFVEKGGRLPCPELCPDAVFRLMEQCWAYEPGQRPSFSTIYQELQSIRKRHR
A further data set has as its target FGFR1 (UniProt P11362). The data set is described as above.
A further data set has as its target Fyn (UniProt P06241). The data set is described as above.
For a further data set, the system named is c-Src. The description is as above.
For a further data set, the target named is Hck (UniProt P08631). The data set is described as above.
Sequence of Hck (P08631 whole entry, looked up): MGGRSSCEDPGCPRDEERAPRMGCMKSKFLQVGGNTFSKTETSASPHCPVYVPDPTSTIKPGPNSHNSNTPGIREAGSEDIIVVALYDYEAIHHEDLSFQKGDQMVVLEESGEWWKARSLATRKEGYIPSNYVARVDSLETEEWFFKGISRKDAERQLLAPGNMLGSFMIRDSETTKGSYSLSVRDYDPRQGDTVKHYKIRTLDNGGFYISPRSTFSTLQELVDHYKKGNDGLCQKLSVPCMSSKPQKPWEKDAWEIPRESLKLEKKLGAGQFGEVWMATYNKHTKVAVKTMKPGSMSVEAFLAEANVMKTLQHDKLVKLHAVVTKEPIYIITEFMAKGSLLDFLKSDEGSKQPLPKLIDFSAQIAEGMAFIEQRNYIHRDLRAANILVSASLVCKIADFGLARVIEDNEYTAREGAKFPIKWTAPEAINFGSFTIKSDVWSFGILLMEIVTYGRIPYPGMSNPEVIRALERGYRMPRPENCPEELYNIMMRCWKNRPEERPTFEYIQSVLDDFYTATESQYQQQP
Another data set has as its system Fer (mouse). Described as above.
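Wherever SH2 binding enrichment of the phosphorylated peptide, bacterial display is given: peptide library displayed on the E. coli surface as eCPX fusions, selected cells deep-sequenced, score is each peptide's frequency after selection divided by its frequency in the input.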
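Wherever phosphorylation enrichment, bacterial display is given: 11-residue human phosphosite peptides and single-mutation variants displayed on the E. coli surface, counted by deep sequencing, each peptide's frequency after selection divided by its frequency in the unselected input library; frequency after pTyr selection over input frequency; kinase dosed for 20-30% of maximal phosphorylation in three min.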

Sequence of Grb2 SH2 (P62993 whole entry, looked up): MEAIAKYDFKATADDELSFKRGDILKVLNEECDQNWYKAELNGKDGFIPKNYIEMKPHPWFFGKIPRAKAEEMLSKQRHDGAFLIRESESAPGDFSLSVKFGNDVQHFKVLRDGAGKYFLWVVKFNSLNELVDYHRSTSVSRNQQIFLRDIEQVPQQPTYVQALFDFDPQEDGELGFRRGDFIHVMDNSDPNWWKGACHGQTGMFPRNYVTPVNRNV
Sequence of FGFR1 (P11362 whole entry, looked up): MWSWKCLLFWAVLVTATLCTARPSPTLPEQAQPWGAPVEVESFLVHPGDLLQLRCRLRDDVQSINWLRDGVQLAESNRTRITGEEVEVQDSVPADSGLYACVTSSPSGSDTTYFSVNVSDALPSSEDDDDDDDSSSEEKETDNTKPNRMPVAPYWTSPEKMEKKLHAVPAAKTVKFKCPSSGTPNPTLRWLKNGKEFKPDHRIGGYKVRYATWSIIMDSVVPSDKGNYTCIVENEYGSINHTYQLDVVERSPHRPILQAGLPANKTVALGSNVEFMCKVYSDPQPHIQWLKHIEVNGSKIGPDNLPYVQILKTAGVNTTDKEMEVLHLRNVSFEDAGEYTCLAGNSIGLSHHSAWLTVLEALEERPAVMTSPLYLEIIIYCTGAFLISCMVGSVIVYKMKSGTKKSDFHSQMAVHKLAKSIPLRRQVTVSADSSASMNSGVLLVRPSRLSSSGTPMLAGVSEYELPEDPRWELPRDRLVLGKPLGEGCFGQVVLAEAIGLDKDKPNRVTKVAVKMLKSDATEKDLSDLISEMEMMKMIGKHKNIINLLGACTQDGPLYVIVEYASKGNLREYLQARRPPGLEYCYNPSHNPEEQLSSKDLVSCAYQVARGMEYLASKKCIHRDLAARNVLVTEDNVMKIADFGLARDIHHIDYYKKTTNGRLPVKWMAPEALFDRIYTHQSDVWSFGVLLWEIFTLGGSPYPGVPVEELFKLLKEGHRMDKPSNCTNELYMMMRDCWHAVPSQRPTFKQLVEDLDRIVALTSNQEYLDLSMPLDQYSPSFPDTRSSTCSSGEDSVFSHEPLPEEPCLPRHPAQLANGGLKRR
Sequence of Fyn (P06241 whole entry, looked up): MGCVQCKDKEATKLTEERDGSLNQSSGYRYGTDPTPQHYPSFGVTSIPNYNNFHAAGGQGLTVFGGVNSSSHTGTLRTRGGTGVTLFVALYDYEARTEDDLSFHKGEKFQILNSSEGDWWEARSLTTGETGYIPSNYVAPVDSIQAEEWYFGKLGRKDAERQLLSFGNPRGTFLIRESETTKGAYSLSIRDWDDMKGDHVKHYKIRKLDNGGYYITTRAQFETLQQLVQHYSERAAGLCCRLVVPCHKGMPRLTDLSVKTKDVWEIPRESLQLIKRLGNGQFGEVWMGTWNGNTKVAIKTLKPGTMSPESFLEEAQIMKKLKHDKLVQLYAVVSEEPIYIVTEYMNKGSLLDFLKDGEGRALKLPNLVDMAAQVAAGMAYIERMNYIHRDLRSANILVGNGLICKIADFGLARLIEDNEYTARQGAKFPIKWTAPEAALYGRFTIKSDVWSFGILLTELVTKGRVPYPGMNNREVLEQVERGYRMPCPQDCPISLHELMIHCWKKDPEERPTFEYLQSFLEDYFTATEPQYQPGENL
Sequence of MERTK (Q12866 whole entry, looked up): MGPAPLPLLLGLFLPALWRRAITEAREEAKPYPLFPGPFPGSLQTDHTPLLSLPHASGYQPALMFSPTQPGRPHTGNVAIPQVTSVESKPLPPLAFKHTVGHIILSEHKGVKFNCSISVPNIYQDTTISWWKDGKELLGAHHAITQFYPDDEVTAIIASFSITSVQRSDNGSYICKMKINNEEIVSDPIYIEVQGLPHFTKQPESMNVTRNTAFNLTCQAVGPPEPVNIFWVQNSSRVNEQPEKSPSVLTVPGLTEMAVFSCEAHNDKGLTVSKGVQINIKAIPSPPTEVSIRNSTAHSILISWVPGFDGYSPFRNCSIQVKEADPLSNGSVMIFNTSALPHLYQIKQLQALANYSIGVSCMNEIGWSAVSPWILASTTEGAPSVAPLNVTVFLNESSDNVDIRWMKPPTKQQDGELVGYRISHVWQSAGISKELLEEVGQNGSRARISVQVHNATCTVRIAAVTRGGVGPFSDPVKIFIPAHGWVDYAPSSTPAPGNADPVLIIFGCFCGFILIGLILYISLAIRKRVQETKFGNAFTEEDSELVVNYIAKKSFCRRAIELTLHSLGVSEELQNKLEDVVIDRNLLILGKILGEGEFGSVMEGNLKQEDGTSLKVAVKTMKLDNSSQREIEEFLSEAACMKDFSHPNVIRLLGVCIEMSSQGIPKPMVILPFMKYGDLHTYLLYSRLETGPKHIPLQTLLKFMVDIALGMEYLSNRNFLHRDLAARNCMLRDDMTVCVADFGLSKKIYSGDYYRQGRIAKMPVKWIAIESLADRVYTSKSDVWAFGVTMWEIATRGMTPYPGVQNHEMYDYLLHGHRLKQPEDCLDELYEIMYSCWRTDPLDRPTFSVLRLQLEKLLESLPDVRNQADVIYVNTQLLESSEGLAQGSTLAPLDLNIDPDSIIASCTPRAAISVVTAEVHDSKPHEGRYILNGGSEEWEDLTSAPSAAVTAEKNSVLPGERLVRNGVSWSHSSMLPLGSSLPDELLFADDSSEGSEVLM

Turning to DVRQEYSGMIL [PLXND1_Y616_P617S], the SH2 binding enrichment with SHP2-C SH2 stood at 0.39; with c-Src SH2, 0.536; with Grb2 SH2, 0.696. Also, the phosphorylation enrichment turned out to be 0.795 in the data set with AncSZ; 0.531 in the data set with EPHB2; 0.432 with EPHB1; 0.565 with FGFR3; 0.678 in the data set with Jak2; 0.35 with MERTK. Moreover, the phosphorylation enrichment with c-Abl (mouse) turned out to be 0.484; with Fes, 0.891; in the data set with FGFR1, 0.504; in the data set with Fyn it was 0.434; in the data set on c-Src, 0.477; in the data set with Hck it was 0.498. The phosphorylation enrichment in the data set on Fer (mouse) was found to be 0.567.

For the sequence KMGNEYVTKGQ [MYH7_Y410_V406M], the SH2 binding enrichment with SHP2-C SH2 was determined as 0.576; with c-Src SH2, 0.408; with Grb2 SH2, 0.713. Moreover, the phosphorylation enrichment with AncSZ worked out at 0.447; with EPHB2, 0.353; in the data set with EPHB1 it was 0.367; with FGFR3, 0.447; with Jak2 it was 0.418; with MERTK, 0.374. Further, the phosphorylation enrichment in the data set with c-Abl (mouse) is 0.326; in the data set with Fes, 0.523; in the data set with FGFR1, 0.375; with Fyn it was 0.358; with c-Src, 0.344; in the data set with Hck, 0.451. In the data set with Fer (mouse), the phosphorylation enrichment stood at 0.385.

GHMYAYDWISI [BEST1_Y227_L224M]: the results for the SH2 binding enrichment with SHP2-C SH2, in the data set with c-Src SH2 and in the data set with Grb2 SH2 were 1.82, 2.41 and 1.6, respectively. For the same sequence, the phosphorylation enrichment came to 2.18 with AncSZ; 2.54 with EPHB2; 3.06 with EPHB1; 6.08 in the data set with FGFR3; 0.798 in the data set with Jak2; 7.82 with MERTK. In addition, the phosphorylation enrichment worked out at 0.739 in the data set with c-Abl (mouse); 4.88 in the data set with Fes; 8.74 in the data set with FGFR1; 1.89 with Fyn; 1.82 with c-Src; 2.87 in the data set with Hck. Also, the phosphorylation enrichment in the data set on Fer (mouse) stood at 14.7.

As for RFGRKYKKVRF [F8_Y442_I438F], the figures for the SH2 binding enrichment in the data set with SHP2-C SH2, with c-Src SH2 and with Grb2 SH2 were 0.564, 0.374 and 0.724, respectively. Further, the phosphorylation enrichment in the data set on AncSZ came out at 0.708; in the data set with EPHB2, 0.551; with EPHB1, 0.572; in the data set with FGFR3, 0.651; with Jak2, 0.884; with MERTK it was 1.04. For the same sequence, the phosphorylation enrichment with c-Abl (mouse) amounted to 0.806; with Fes it was 0.841; with FGFR1 it was 0.653; with Fyn, 0.82; in the data set on c-Src it was 0.988; with Hck, 0.674. Besides, the phosphorylation enrichment in the data set with Fer (mouse) is 0.619.

Take IGEGTYGVVFK [CDK2_Y15_YF]: the SH2 binding enrichment with SHP2-C SH2 amounted to 0.655; with c-Src SH2 it was 0.457; in the data set with Grb2 SH2, 0.799. In addition, the phosphorylation enrichment in the data set on AncSZ stood at 0.826; with EPHB2, 2.86; with EPHB1, 1.14; with FGFR3 it was 0.557; with Jak2 it was 0.815; with MERTK it was 0.905. In addition, the phosphorylation enrichment with c-Abl (mouse) was determined as 0.631; with Fes, 1.05; in the data set with FGFR1, 0.431; with Fyn, 7.22; in the data set on c-Src it was 4.93; with Hck, 4.9. For the same sequence, in the data set on Fer (mouse), the phosphorylation enrichment stood at 1.02.

Take HESEIYGKVCY [CSRP3_Y57_C58G]: the SH2 binding enrichment in the data set with SHP2-C SH2 worked out at 0.344; in the data set with c-Src SH2, 0.422; with Grb2 SH2, 0.77. The phosphorylation enrichment was 1.36 with AncSZ; 0.968 with EPHB2; 0.828 with EPHB1; 0.808 with FGFR3; 1.31 with Jak2; 1.08 with MERTK. The phosphorylation enrichment was 2.81 with c-Abl (mouse); 1.32 with Fes; 0.612 with FGFR1; 8.66 with Fyn; 6.37 in the data set with c-Src; 5.92 with Hck. Also, the phosphorylation enrichment in the data set with Fer (mouse) is 8.63.

For the sequence DMLTLYVNTAA [SMCHD1_Y403_Q400L], the SH2 binding enrichment in the data set with SHP2-C SH2 was 0.993; with c-Src SH2, 0.646; with Grb2 SH2, 5.64. The phosphorylation enrichment in the data set on AncSZ was found to be 1.4; with EPHB2 it was 0.775; with EPHB1, 0.758; in the data set with FGFR3 it was 0.855; in the data set with Jak2, 1.13; in the data set with MERTK, 0.444. In addition, the phosphorylation enrichment in the data set on c-Abl (mouse) stood at 0.766; with Fes it was 1.36; with FGFR1, 0.569; in the data set with Fyn it was 0.457; in the data set on c-Src, 0.524; with Hck, 0.557. In addition, the phosphorylation enrichment in the data set on Fer (mouse) is 0.535.

In the case of GRPMDYHVSIT [OTOF_Y254_Q255H], the SH2 binding enrichment with SHP2-C SH2 came to 0.698; with c-Src SH2, 0.575; with Grb2 SH2, 0.825. Also, the phosphorylation enrichment with AncSZ was determined as 0.732; with EPHB2, 0.453; with EPHB1, 0.532; in the data set with FGFR3 it was 0.577; with Jak2 it was 0.83; with MERTK it was 0.414. Further, the phosphorylation enrichment came out at 0.626 in the data set with c-Abl (mouse); 0.923 in the data set with Fes; 0.453 in the data set with FGFR1; 0.456 in the data set with Fyn; 0.4 in the data set with c-Src; 0.479 with Hck. Further, the phosphorylation enrichment in the data set on Fer (mouse) stood at 0.559.
